From publication PMC11965559 (Nature Communications, 2024)
Like-named read-outs stand apart in the source and are kept apart here.

B1: Umini-ΔSm-snRNA (structured_RNA)
RNA: GGGAAGUGUUACAGCUCUUUUAGAACCCCCGGAGUAGGCUUUCUGGCUUUUCACCGGAAAGCCCCU
B2: U4-snRNA (structured_RNA)
RNA: GGAUCCUUAUGCACGGGAAAUACGCAUAUCAGUGAGGAUUCGUCCGAGAUUGUGUUUUUGCUGGUUGAAAUUUAAUUAUAAACCAGACCGUCUCCUCAUGGUCAAUUCGGUGUUCGCUUUUGAAUACUUCAAGACUAUGUAAAUUUUUGGAAUACCUUU
B3: Umini-3'ss (ssRNA)
RNA: GGGAAGUGUUACAGCUCUUUUAGAAUUUUUGGAGUAGGCUUUCUGGCUUUUCAGGCCUUUCGGGGA

Key:
Assay in all cases: EMSA
[1] = target: SmD1 (1-109);SmD2;SmF;SmE;SmG;Brr1 (Saccharomyces cerevisiae;Saccharomyces …, UniProt Q02260;Q06217;P54999;Q12330;P40204;Q99177 1-109;1-110;1-86;1-94;1-77;1-341, |||||)
[2] = target: T1, SmD1 (1-109);SmD2;SmF;SmE;SmG;SmD3 (1-88);SmB (1-105) (Saccharomyces cerevisiae;Saccharomyces …, UniProt Q02260;Q06217;P54999;Q12330;P40204;P43321;P40018 …, ||||||)
[3] = target: T2, SmD1 (1-109);SmD2;SmF;SmE;SmG (Saccharomyces cerevisiae;Saccharomyces …, UniProt Q02260;Q06217;P54999;Q12330;P40204 1-109;1-110;1-86;1-94;1-77, ||||)
[4] = target: SmD1 (1-109);SmD2;SmF;SmE;SmG;Brr1;SmD3 (1-88);SmB (1-105) (Saccharomyces cerevisiae;Saccharomyces …, UniProt Q02260;Q06217;P54999;Q12330;P40204;Q99177;P43321;P40018 …, |||||||)
[5] = target: T1, SmD1 (1-109);SmD2;SmF;SmE;SmG;SmD3 …; remark: listed apart in the source
[6] = target: T2, SmD1 (1-109);SmD2;SmF;SmE;SmG; remark: listed apart in the source
[7] = target: T1, SmD1 (1-109);SmD2;SmF;SmE;SmG;SmD3 …; remark: listed apart in the source

Binder | binding result [1] | binding result [2] | binding result [3] | binding result [4] | binding result [5] | binding result [6] | binding result [7]
B1 | no binding | no binding | no binding | no binding | – | – | –
B2 | binds | – | – | – | binds | – | –
B3 | binds | – | – | – | – | binds | binds
